Tests used:
fyn_human FYN = fyn_human FYN (UniProt P06241)
hck_human HCK = hck_human HCK (UniProt P08631)
lck_human LCK = lck_human LCK (UniProt P06239)
grb2_human GRB2 = grb2_human GRB2 (UniProt P62993)

Measured: effect of a mutation on the interaction

fyn_human FYN, sequence (P06241 whole entry, looked up): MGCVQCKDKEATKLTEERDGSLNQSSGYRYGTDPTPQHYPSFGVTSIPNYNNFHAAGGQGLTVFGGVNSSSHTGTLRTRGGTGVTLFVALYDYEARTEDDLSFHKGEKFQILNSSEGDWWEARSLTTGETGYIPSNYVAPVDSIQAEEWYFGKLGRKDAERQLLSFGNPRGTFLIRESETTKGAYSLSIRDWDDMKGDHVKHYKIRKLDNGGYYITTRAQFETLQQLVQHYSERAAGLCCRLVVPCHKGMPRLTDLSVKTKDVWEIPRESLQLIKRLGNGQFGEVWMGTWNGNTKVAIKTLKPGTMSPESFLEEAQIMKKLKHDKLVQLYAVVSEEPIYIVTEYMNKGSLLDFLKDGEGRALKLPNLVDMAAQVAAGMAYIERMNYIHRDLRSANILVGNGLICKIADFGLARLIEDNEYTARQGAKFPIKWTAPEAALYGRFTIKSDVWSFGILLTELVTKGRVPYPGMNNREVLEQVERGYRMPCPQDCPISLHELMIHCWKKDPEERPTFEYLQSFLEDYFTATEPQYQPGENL
hck_human HCK, sequence (P08631 whole entry, looked up): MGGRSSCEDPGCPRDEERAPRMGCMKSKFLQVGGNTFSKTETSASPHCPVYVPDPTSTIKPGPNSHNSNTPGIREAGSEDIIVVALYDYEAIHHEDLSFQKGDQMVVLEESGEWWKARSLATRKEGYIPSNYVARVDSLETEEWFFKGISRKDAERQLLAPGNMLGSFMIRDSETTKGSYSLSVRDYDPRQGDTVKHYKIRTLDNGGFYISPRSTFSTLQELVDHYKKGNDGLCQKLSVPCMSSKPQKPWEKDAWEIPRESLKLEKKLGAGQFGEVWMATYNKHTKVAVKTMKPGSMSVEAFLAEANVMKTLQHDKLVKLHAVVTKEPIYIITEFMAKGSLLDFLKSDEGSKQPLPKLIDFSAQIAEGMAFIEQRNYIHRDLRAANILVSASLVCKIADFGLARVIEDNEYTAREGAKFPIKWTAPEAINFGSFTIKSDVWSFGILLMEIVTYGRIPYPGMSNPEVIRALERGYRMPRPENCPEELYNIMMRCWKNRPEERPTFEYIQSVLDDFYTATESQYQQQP
lck_human LCK, sequence (P06239 whole entry, looked up): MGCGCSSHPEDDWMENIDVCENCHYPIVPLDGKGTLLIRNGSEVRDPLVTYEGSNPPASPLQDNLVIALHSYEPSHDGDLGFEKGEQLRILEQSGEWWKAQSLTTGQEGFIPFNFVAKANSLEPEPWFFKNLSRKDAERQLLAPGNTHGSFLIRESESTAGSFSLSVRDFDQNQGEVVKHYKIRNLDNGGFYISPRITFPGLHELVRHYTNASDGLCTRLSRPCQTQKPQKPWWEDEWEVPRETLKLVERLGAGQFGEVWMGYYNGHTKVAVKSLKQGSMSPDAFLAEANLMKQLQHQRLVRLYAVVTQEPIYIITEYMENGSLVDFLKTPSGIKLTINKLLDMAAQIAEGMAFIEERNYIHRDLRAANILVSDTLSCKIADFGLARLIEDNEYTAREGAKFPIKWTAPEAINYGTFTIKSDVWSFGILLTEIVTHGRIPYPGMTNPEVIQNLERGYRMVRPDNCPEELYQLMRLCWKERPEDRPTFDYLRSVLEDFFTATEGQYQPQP

Genome polyprotein (Hepatitis C virus genotype 1b (isolate Con1) (HCV)), Q9WMX2 P2322A;P2325A;P2326A
disrupting interaction: all assays above

Reference: IntAct's records for PubMed 15784897
